Reference: PMC3365014 (PLoS ONE, 2012)

Molecular target: T1, p53 C-terminal domain (p53CTD, residues 293–393) (UniProt P04637 293-393)
T1 construct: p53 C-terminal domain, residues 293–393; 15N-labeled for NMR; also called p53(293–393); full length p53CTD; source: E. coli (C41 for the 15N-labeled protein), purified as described [23]
Assay: peptide or protein array; Celluspots peptide array, peptides immobilised; 20 µM p53CTD in 1% milk in TBS-T (50 mM Tris pH 7.5, 110 mM NaCl, 0.05% Tween 20), overnight at 4°C; detected with FL-393 anti-p53 antibody
Details: both partners purified

T1 sequence (P04637 293-393): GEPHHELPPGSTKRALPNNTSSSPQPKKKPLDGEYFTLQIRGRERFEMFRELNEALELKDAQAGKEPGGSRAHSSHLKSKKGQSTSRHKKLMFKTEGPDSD

binding result: binds
B1: PKCα(271–285), peptide on the array (peptide)
peptide: ASGWYKLLNQEEGEY
notes: Protein Kinase C α isoform, residues 271–285; Immobilised on the array; source: bought: Intavis Celluspots peptide array
